The text below walks through data of patent publication US8871909B2, “Antibodies inhibiting c-Met dimerization and uses thereof” (Pierre Fabre Medicament, priority 2007, dated 2014).

Test [1] concerns the target T1, c-Met-Fc (Homo sapiens, UniProt P08581).
T1 construct: c-Met extracellular domain fusion protein (10-15 g/dose/mouse) (R&D Systems, Catalog #358MT); purchased R&D Systems
The experiment in a line: Displacement of [125I]-HGF binding to immobilized c-Met. The note with it: 0.1 pM to 1 μM. The procedure: To determine whether the anti-c-Met antibodies were able to displace HGF, binding experiments were set up. Briefly, protein A FlashPlate 96-well microplates (Perkin Elmer) were saturated with 0.5% gelatine in PBS (200 μl/well, 2 h at room temperature) before adding recombinant c-Met-Fc (R&D Systems) as a coating protein. […] of a 1 μg/ml c-Met-Fc solution in PBS were added to each well. Plates were then incubated overnight at 4° C. Free residual Protein A sites were further saturated with a non relevant hIgG (0.5 μg/well in PBS) for 2 h at room temperature. Plates were washed with PBS after each step.
For competition assays, binding of [^125I]-HGF (specific activity ˜2,000 Ci/mmol) at 200 pM to immobilized c-Met was measured in the presence of varying concentrations of the anti-c-Met monoclonal antibodies 11E1, 224G11, 223C4, 227H1 or HGF (R&D Systems) ranging from 0.1 pM to 1 μM in PBS pH 7.4. The plates were incubated at room temperature for 6 h, then counted on a Packard Top Count Microplate Scintillation Counter. Non specific binding was determined in the presence of […] of HGF. The monoclonal antibody 9G4, which is not directed at c-Met but specifically recognizes an E. coli protein, was used as mouse IgG1 isotype control.
Percent of total specific [^125I]-HGF binding was plotted as a function of ligand concentration on semilog graphs. […]
(In general: In a radioligand displacement assay an active substance lowers the binding of a labelled ligand.)

Test [2] relates to G55. The note with it: glioblastoma growing independently of HGF; cited from earlier work.

T1 sequence (P08581 25-932 limits assumed): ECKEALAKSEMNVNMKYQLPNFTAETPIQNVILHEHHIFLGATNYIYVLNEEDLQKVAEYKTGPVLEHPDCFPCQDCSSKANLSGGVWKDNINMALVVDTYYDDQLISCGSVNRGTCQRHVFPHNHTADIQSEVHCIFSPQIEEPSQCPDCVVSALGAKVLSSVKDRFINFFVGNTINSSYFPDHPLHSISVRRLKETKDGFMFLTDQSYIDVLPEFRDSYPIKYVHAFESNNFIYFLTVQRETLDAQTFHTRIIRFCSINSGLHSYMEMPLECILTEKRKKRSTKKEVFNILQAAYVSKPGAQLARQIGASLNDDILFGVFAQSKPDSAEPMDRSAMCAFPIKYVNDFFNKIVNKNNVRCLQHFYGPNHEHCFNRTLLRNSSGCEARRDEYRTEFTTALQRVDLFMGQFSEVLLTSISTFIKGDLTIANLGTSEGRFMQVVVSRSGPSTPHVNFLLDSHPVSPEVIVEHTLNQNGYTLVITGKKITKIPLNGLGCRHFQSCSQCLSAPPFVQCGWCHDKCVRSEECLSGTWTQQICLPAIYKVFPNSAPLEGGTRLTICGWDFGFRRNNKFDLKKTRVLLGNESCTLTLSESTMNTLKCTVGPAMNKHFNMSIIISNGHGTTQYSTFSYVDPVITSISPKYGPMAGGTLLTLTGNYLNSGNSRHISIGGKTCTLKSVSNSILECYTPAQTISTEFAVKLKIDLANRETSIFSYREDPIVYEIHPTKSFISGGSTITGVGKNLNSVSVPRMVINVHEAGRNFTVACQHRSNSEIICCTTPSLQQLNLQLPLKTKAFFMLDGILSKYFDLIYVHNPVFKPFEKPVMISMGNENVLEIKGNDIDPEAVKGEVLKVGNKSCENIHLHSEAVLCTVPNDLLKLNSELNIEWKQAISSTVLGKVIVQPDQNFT

In the case of “HGF: hepatocyte growth factor (R&D Systems), c-Met ligand used as unlabeled competitor”, the “displacement of [125I]-HGF binding to immobilized c-Met” value in test [1] is recorded as “fully displace”.

B1: OA5D5: monovalent engineered form of 5D5 produced as a recombinant protein in E. Coli (Genentech) (antibody, chains of the INN, looked up, V domains shown)
VH: EVQLVESGGGLVQPGGSLRLSCAASGYTFTSYWLHWVRQAPGKGLEWVGMIDPSNSDTRFNPNFKDRFTISADTSKNTAYLQMNSLRAEDTAVYYCATYRSYVTPLDYWGQGTLVTVSS
VL: DIQMTQSPSSLSASVGDRVTITCKSSQSLLYTSSQKNYLAWYQQKPGKAPKLLIYWASTRESGVPSRFSGSGSGTDFTLTISSLQPEDFATYYCQQYYAYPWTFGQGTKVEIK
modifications: one-armed monovalent antibody
In the case of B1, the “effect on G55 tumor growth” value in test [2] is recorded as “no significant effect”.
